Data: PMC12122801 (Nature Communications, 2025)

Target: Mycobacterium tuberculosis MmpL5 (Rv0676c) with a C-terminal 1×FLAG tag (Mycobacterium tuberculosis, UniProt P9WJV1)
Assay: cryo-EM structure

Mycobacterium tuberculosis MmpL5 (Rv0676c) with a C-terminal 1×FLAG tag, sequence (P9WJV1 whole entry): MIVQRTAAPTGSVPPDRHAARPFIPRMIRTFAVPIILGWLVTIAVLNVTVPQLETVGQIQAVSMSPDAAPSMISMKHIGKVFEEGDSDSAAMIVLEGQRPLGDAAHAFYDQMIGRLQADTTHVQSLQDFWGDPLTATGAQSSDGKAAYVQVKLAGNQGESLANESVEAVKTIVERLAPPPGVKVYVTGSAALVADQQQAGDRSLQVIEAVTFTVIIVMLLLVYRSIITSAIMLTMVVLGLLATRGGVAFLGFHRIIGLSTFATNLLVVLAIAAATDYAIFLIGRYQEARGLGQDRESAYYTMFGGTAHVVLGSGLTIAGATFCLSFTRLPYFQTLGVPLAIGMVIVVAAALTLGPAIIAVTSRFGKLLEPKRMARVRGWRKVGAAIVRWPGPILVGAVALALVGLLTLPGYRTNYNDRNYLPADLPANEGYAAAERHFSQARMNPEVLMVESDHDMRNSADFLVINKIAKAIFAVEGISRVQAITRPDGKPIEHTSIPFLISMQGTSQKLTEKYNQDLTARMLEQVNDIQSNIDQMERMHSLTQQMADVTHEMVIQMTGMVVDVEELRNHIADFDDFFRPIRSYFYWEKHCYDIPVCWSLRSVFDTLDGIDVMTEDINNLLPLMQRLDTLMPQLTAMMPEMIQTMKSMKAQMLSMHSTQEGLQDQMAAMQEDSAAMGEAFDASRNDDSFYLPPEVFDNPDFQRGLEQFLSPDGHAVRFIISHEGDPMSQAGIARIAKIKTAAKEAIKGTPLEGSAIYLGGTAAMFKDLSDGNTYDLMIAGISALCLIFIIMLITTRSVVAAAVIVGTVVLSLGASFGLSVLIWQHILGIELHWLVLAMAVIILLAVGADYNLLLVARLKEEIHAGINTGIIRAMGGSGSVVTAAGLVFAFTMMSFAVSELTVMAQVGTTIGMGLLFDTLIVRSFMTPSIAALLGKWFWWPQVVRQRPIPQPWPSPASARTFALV

B1: Mycobacterium smegmatis acyl carrier protein AcpM (MSMEG_4326) (natural protein)
chain: MAATQEEIIAGLAEIIEEVTGIEPSEVTPEKSFVDDLDIDSLSMVEIAVQTEDKYGVKIPDEDLAGLRTVGDVVAYIQKLEEENPEAAAALREKFAADQ
modifications: 4'-phosphopantetheine (Ppant) covalently attached to Ser41 via a phosphodiester (holo-form)
B1: binds.
